Measurements reported in paper PMC4702141 (Scientific Reports, 2016).
Values belong to the binder of their own block, whether it stands above or below them.

B1: mouse GDF-5 (ligand, UniProt P43027 376-495, looked up)
chain: APLANRQGKRPSKNLKARCSRKALHVNFKDMGWDDWIIAPLEYEAFHCEGLCEFPLRSHLEPTNHAVIQTLMNSMDPESTPPTCCVPTRLSPISILFIDSANNVVYKQYEDMVVESCGCR
notes: Growth differentiation factor 5, mouse, recombinant; source: bought: R&D Systems
B3: mouse GDF-6 (ligand, UniProt P43028 335-454, looked up)
chain: TAFASRHGKRHGKKSRLRCSRKPLHVNFKELGWDDWIIAPLEYEAYHCEGVCDFPLRSHLEPTNHAIIQTLMNSMDPGSTPPSCCVPTKLTPISILYIDAGNNVVYKQYEDMVVESCGCR
notes: Growth differentiation factor 6, mouse, recombinant; source: bought: R&D Systems
B4: recombinant BMPRIB-Fc (Fc fusion, mouse, UniProt P36898 14-126, looked up)
chain: KKEDGESTAPTPRPKILRCKCHHHCPEDSVNNICSTDGYCFTMIEEDDSGMPVVTSGCLGLEGSDFQCRDTPIPHQRRSIECCTERNECNKDLHPTLPPLKDRDFVDGPIHHK
notes: BMPRIB (ALK6), mouse, extracellular domain; cDNA fragment NM_007560.3, 4-378 bp, from FANTOM cDNA clones (RIKEN); also called ALK6; source: 293F cells, transfected, purified from culture supernatant (Protein A columns)
B6: BMPRIA-Fc (Fc fusion)
chain: QNLDSMLHGTGMKSDSDQKKSENGVTLAPEDTLPFLKCYCSGHCPDDAINNTCITNGHCFAIIEEDDQGETTLASGCMKYEGSDFQCKDSPKAQLRRTIECCRTNLCNQYLQPTLPPVVIGPFFDGSIR
modifications: Extracellular domain; C-terminal human IgG Fc (left out) makes a disulfide-linked dimer. The protein was bought from R&D Systems with species and limits not given; human is taken as the likeliest …

Experiments:
Assay in all cases: SPR; BMPRIA-Fc or BMPRIB-Fc captured with an anti-human Fc IgG capture kit; ligands injected at 25 °C, 30 μL/min; HBS-EP (+) running buffer; single-cycle kinetics, 1:1 binding model, Biacore T100; average of 2 or 3 independent analyses
BMPRIA-Fc = target: B6; details: both partners purified
BMPRIA-Fc, P36895 = target: T1, BMPRIA-Fc, P36895; details: remark: other sources report otherwise
T1 chain: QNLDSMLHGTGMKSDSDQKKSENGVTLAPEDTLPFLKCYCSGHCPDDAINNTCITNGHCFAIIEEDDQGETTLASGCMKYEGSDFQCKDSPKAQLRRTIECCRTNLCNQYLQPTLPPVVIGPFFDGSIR

human BMP2 = target: T2, human BMP2 (human, UniProt P12643 283-396); details: both partners purified
T2 construct: Bone morphogenetic protein 2, human, recombinant; source: bought: R&D Systems
T2 sequence (P12643 283-396): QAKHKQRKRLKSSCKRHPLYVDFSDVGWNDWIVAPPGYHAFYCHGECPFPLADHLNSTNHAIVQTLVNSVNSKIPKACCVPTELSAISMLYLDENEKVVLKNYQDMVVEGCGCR

human BMP4 = target: T3, human BMP4 (human, UniProt P12644 293-408); details: both partners purified
T3 construct: Bone morphogenetic protein 4, human, recombinant; source: bought: R&D Systems
T3 sequence (looked up): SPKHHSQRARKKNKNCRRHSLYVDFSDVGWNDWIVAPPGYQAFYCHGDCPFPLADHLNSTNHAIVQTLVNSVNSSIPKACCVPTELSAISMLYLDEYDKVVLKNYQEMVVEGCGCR

human BMP6 = target: T4, human BMP6 (human, UniProt P22004 375-513); details: both partners purified
T4 construct: Bone morphogenetic protein 6, human, recombinant; source: bought: R&D Systems
T4 sequence (looked up): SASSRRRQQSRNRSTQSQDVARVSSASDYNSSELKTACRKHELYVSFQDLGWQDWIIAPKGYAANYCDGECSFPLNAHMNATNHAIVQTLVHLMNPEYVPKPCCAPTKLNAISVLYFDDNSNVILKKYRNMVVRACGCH

human BMP7 = target: T5, human BMP7 (human, UniProt P18075 293-431); details: both partners purified
T5 construct: Bone morphogenetic protein 7, human, recombinant; source: bought: R&D Systems
T5 sequence (looked up): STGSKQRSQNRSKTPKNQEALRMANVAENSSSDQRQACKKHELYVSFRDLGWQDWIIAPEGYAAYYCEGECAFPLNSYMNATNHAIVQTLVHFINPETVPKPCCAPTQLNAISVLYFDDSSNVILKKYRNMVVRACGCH

mouse GDF-5 = target: B1; details: both partners purified
mouse GDF-6 = target: B3; details: both partners purified
mouse GDF-7 = target: T6, mouse GDF-7 (mouse, UniProt P43029 316-461); details: both partners purified
T6 construct: Growth differentiation factor 7, mouse, recombinant; source: bought: R&D Systems
T6 sequence (looked up): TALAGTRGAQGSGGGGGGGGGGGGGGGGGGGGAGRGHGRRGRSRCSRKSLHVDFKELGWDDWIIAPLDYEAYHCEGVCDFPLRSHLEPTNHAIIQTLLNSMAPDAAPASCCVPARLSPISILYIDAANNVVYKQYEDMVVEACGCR

recombinant BMPRIB-Fc = target: B4; details: both partners purified

Binder: B1
- Kd (BMPRIA-Fc): 1.63 nM

- Kd (BMPRIA-Fc, P36895): 1.95 nM
B2: human BMP7, P18075 293-431 (ligand)
chain: STGSKQRSQNRSKTPKNQEALRMANVAENSSSDQRQACKKHELYVSFRDLGWQDWIIAPEGYAAYYCEGECAFPLNSYMNATNHAIVQTLVHFINPETVPKPCCAPTQLNAISVLYFDDSSNVILKKYRNMVVRACGCH
modifications: here or on the partner: Extracellular domain; C-terminal human IgG Fc (left out) makes a disulfide-linked dimer. The protein was bought from R&D Systems with species and limits not given; human is taken as the likeliest pr

Binder: B3
- Kd (BMPRIA-Fc): 0.48 nM

Binder: B4
- Kd (human BMP2): 0.00248 nM
- Kd (human BMP4): 0.221 nM
- Kd (human BMP6): 0.00035 nM
- Kd (human BMP7): 0.268 nM
- Kd (mouse GDF-5): 0.129 nM
- Kd (mouse GDF-6): 0.159 nM
- Kd (mouse GDF-7): 0.209 nM

- Kd (recombinant BMPRIB-Fc): 0.00945 nM
B5: human BMP10 (ligand, UniProt O95393 317-424, looked up)
chain: NAKGNYCKRTPLYIDFKEIGWDSWIIAPPGYEAYECRGVCNYPLAEHLTPTKHAIIQALVHLKNSQKASKACCVPTKLEPISILYLDKGVVTYKFKYEGMAVSECGCR
notes: Bone morphogenetic protein 10, human, recombinant; source: bought: R&D Systems

Binder: B6
- Kd (human BMP6): 0.0792 nM
- Kd (mouse GDF-7): 0.432 nM
